What is called stoichiometry N is the number of molecules, sites or subunits per partner or assembly.

These results are taken from paper PMC9481740 (The Journal of Cell Biology, 2022).

Data set [1] deals with T1, full-length Spindly without mCherry tag (human), Q96EA4.
T1 chain: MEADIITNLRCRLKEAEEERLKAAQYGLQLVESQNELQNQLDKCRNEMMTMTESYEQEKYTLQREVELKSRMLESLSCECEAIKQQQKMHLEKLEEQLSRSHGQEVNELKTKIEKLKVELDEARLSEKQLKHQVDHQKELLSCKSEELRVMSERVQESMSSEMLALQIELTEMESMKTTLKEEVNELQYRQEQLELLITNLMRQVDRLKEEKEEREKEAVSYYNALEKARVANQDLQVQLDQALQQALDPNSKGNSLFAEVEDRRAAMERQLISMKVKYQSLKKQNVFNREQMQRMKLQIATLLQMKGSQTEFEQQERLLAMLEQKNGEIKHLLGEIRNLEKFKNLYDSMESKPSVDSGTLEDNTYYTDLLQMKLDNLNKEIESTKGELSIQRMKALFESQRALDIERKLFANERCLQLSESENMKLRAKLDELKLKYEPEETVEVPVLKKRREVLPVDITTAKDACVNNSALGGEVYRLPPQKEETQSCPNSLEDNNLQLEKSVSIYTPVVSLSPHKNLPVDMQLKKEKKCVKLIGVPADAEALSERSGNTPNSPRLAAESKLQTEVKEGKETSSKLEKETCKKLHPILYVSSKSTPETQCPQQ
Nature of the data set: mass photometry; Refeyn TwoMP; sample diluted to a final 10 nM in Spindly buffer (50 mM Hepes pH 8.0, 250 mM NaCl, 2 mM TCEP); crosslinked samples measured after dilution beside untreated controls. The following applies: remark: other sources report otherwise.

Data set [2] concerns the molecule itself. Described as above.
Data set [3] deals with the molecule itself. Nature of the data set: crystal structure; Spindly 1-100, Se-SAD, refined to 2.8 Å; Bis-Tris Propane/HCl pH 6.5, 19% PEG3350, 0.2 M potassium thiocyanate.
Data set [4] concerns the molecule itself. Nature of the data set: not stated; unpublished observations; dimer-tetramer equilibrium, tetramer prevailing at micromolar concentration.

“And” between values parts separate entries of the source, which are not always exact repeats. Identical values can stand only once.

B1: full-length Spindly without mCherry tag, Q96EA4 1-605 (natural protein)
chain: MEADIITNLRCRLKEAEEERLKAAQYGLQLVESQNELQNQLDKCRNEMMTMTESYEQEKYTLQREVELKSRMLESLSCECEAIKQQQKMHLEKLEEQLSRSHGQEVNELKTKIEKLKVELDEARLSEKQLKHQVDHQKELLSCKSEELRVMSERVQESMSSEMLALQIELTEMESMKTTLKEEVNELQYRQEQLELLITNLMRQVDRLKEEKEEREKEAVSYYNALEKARVANQDLQVQLDQALQQALDPNSKGNSLFAEVEDRRAAMERQLISMKVKYQSLKKQNVFNREQMQRMKLQIATLLQMKGSQTEFEQQERLLAMLEQKNGEIKHLLGEIRNLEKFKNLYDSMESKPSVDSGTLEDNTYYTDLLQMKLDNLNKEIESTKGELSIQRMKALFESQRALDIERKLFANERCLQLSESENMKLRAKLDELKLKYEPEETVEVPVLKKRREVLPVDITTAKDACVNNSALGGEVYRLPPQKEETQSCPNSLEDNNLQLEKSVSIYTPVVSLSPHKNLPVDMQLKKEKKCVKLIGVPADAEALSERSGNTPNSPRLAAESKLQTEVKEGKETSSKLEKETCKKLHPILYVSSKSTPETQCPQQ
Molecule B1 had a stoichiometry N in data set [1] of 2.

B2: ^mChSpindly^76–605 (domain or fragment, human, UniProt Q96EA4 76-605, looked up)
chain: LSCECEAIKQQQKMHLEKLEEQLSRSHGQEVNELKTKIEKLKVELDEARLSEKQLKHQVDHQKELLSCKSEELRVMSERVQESMSSEMLALQIELTEMESMKTTLKEEVNELQYRQEQLELLITNLMRQVDRLKEEKEEREKEAVSYYNALEKARVANQDLQVQLDQALQQALDPNSKGNSLFAEVEDRRAAMERQLISMKVKYQSLKKQNVFNREQMQRMKLQIATLLQMKGSQTEFEQQERLLAMLEQKNGEIKHLLGEIRNLEKFKNLYDSMESKPSVDSGTLEDNTYYTDLLQMKLDNLNKEIESTKGELSIQRMKALFESQRALDIERKLFANERCLQLSESENMKLRAKLDELKLKYEPEETVEVPVLKKRREVLPVDITTAKDACVNNSALGGEVYRLPPQKEETQSCPNSLEDNNLQLEKSVSIYTPVVSLSPHKNLPVDMQLKKEKKCVKLIGVPADAEALSERSGNTPNSPRLAAESKLQTEVKEGKETSSKLEKETCKKLHPILYVSSKSTPETQCPQQ
notes: source: E. coli BL21 CodonPlus, purified (HisTrap, Resource Q, Superdex 200); not shown: mCherry, N-terminal, kept
As to B2, in data set [2], the “stoichiometry N” value is 2.

B3: ^mChSpindly^ΔRV (natural protein, human, UniProt Q96EA4 1-605, looked up)
chain: MEADIITNLRCRLKEAEEERLKAAQYGLQLVESQNELQNQLDKCRNEMMTMTESYEQEKYTLQREVELKSRMLESLSCECEAIKQQQKMHLEKLEEQLSRSHGQEVNELKTKIEKLKVELDEARLSEKQLKHQVDHQKELLSCKSEELRVMSEQESMSSEMLALQIELTEMESMKTTLKEEVNELQYRQEQLELLITNLMRQVDRLKEEKEEREKEAVSYYNALEKARVANQDLQVQLDQALQQALDPNSKGNSLFAEVEDRRAAMERQLISMKVKYQSLKKQNVFNREQMQRMKLQIATLLQMKGSQTEFEQQERLLAMLEQKNGEIKHLLGEIRNLEKFKNLYDSMESKPSVDSGTLEDNTYYTDLLQMKLDNLNKEIESTKGELSIQRMKALFESQRALDIERKLFANERCLQLSESENMKLRAKLDELKLKYEPEETVEVPVLKKRREVLPVDITTAKDACVNNSALGGEVYRLPPQKEETQSCPNSLEDNNLQLEKSVSIYTPVVSLSPHKNLPVDMQLKKEKKCVKLIGVPADAEALSERSGNTPNSPRLAAESKLQTEVKEGKETSSKLEKETCKKLHPILYVSSKSTPETQCPQQ
notes: also called ^mChSpindly^∆RV; source: E. coli BL21 CodonPlus, purified (HisTrap, Resource Q, Superdex 200); not shown: mCherry, N-terminal, kept
As to B3, the “stoichiometry N” value in data set [2] was found to be 2.

B4: Spindly^1–100 (domain or fragment, human, UniProt Q96EA4 1-100, looked up)
chain: MEADIITNLRCRLKEAEEERLKAAQYGLQLVESQNELQNQLDKCRNEMMTMTESYEQEKYTLQREVELKSRMLESLSCECEAIKQQQKMHLEKLEEQLSR
notes: selenomethionine protein was also made for phasing; source: E. coli BL21 (DE3), purified (Ni-Sepharose, ion exchange, S200 SEC); not shown: His6, N-terminal, cleaved
Regarding B4, in data set [3], the “stoichiometry N” value was 2.

B5: Spindly^1–275 (domain or fragment, human, UniProt Q96EA4 1-275, looked up)
chain: MEADIITNLRCRLKEAEEERLKAAQYGLQLVESQNELQNQLDKCRNEMMTMTESYEQEKYTLQREVELKSRMLESLSCECEAIKQQQKMHLEKLEEQLSRSHGQEVNELKTKIEKLKVELDEARLSEKQLKHQVDHQKELLSCKSEELRVMSERVQESMSSEMLALQIELTEMESMKTTLKEEVNELQYRQEQLELLITNLMRQVDRLKEEKEEREKEAVSYYNALEKARVANQDLQVQLDQALQQALDPNSKGNSLFAEVEDRRAAMERQLISM
notes: source: TnAO38 insect cells (baculovirus), purified (HisTrap, Resource Q, Superdex 200)
As for B5, the “stoichiometry N” value in data set [4] was 2 and 4.
